The supplement of paper PMC10567573

B1: MNAT1 (parent)
chain: LEEALYEYQPLQIETYGPHVPELE
B2: NR2F2 (parent)
chain: VAHVESLQEKSQCALEEYVRSQYP

Variants of: B1
Experiment: protein stability index of a GFP-peptide fusion (GPS, HEK-293T) (PSI 1-6); higher = more stable
Conditions: c terminus: a fixed tail appended
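Further: lentivirally expressed fusions sorted by FACS into six bins by GFP to DsRed ratio, PSI derived from sequencing read proportions per bin multiplied by bin number.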

Protein stability index of substitutions, site by site:
V20: N 3.23; I 2.4; C 2.15; A 3.26; W 2.17; E 1.94; G 3.45; Y 2.78
L5: F 4.33; S 4.59; D 5.12; N 4.81; V 4.64; M 4.64; Y 4.46; R 4.32; I 4.87; H 4.96; G 4.8; C 4.71
Q9: H 1.87; S 2.94; V 3.84; M 2.74; Y 2.43; E 4.38; T 4.38; W 2.79; K 2.68; P 5.02; R 1.88; D 4.67
P10: H 4.99; R 4.01; T 4.1; W 2.63; S 4.05; E 4.6; N 4.75; M 3.85; I 2.77; Q 4.43; V 2.25; A 3.89
Y16: Q 4.33; M 3.79; I 3.61; G 4.52; L 4.15; S 4.27; F 3.49; H 3.15; E 4.13; D 5.37; W 2.49; N 4.7
T15: M 2.32; C 2.18; K 4.14; P 4.55; W 2.2; R 4.41; N 4.13; H 3.91; I 1.61
E22: L 2.35; R 2.35; T 2.56; A 2.47; F 1.97; W 1.54; C 3.71; Y 2.49; D 2.46; N 2.31; V 2.56; H 2.2; K 2.31; Q 2.54
Y6: M 3; P 5.47; H 3.11; L 3.43; C 2.61; Q 2.81; R 2.27; F 2.8; E 2.74; T 3.56; K 2.46; W 2.39
Q12: C 2.14; W 2.11; F 2.12; A 2.33; P 5.02; G 2.75; N 2.65; D 3.92; E 3.67; V 2.46; M 2.35; T 3.19; S 2.21; L 2.67
Y8: T 5.38; I 4.92; F 3.75; M 4.71; W 3.59; D 5.23; G 5.41; A 5.3; Q 5.5; S 5.53; N 5.74; P 5.25; K 5.14
E7: F 1.87; D 3.92; H 2.11; R 1.73; T 2.68; N 2.73; Y 1.98; S 2.76; L 2.25; C 1.92
G17: C 1.98; Y 1.59; N 2.99; T 2.5; F 2.35; W 1.74; L 1.85
P18: K 4.11; D 2.8; T 3.02; V 2.39; W 1.18; Q 3.3; M 2.01; F 2.17; R 3.78; A 2.74; C 1.91; E 2.15; Y 2.97; G 2.96; L 2.16; I 2.04
E24: G 2.03; Y 1.39; Q 2.18; L 2.19; I 1.88; C 1.76; P 1.93; K 2.53; N 2.35; S 2.54; V 2.19; H 2.25; A 2.84
I13: R 4.76; D 5.07; T 4.75; S 4.96; G 5.01; W 3.8; A 5.37; N 5.5; Q 5.01; K 4.9; Y 4.41; L 4.51
L1: Q 5.08; I 3.45; T 5.14; H 4.98; Y 4.45; C 4.72; E 5.1; G 5.15; D 4.8
A4: L 3.57; W 2.96; K 4.33; C 3.81; I 2.88; D 4.84; H 4.59; F 3.1; Y 3.51; E 4.56; S 4.67; P 4.28
E3: M 2.19; N 3.67; D 3.19; V 1.74; L 2; R 2.79; A 2.43; K 2.64; T 3.16; G 3.41
H19: M 2.09; Q 2.37; K 2.8; E 3.27; T 3.17; P 2.01; A 2.89; C 3.3; D 2.76; S 2.69; V 2.21; L 2.33; F 2.11
E2: D 3.89; L 2.96; G 2.24; M 2.71; Q 1.71; I 2.67; C 3.03; N 2.4; H 1.73; V 2.55
L11: G 5.26; P 5.15; D 4.85; E 4.77; H 4.61; M 3.17; W 4.27; V 2.04; N 4.71; Y 3.18; F 4.11; K 4.26; C 2.99
E14: F 2.01; H 1.8; N 2.61; L 2.01; P 4.22; M 2.47; D 2.68; R 1.93; A 2.3; C 2.12
P21: R 2.96; E 3.67; V 2.19; N 2.47; F 1.44; D 3.3; Q 3.42; G 1.97; I 2.2; A 2.92; T 2.56; L 2.79; C 3.78; Y 1.75
L23: G 3.55; F 2.87; S 3.48; W 2.84; P 3.19; I 2.53; D 4.02; C 3.16; M 3.2; Y 2.89; K 3.59

Variants of: B2
Experiment: as above
Conditions: c terminus: a fixed tail appended

Protein stability index: each site, then its substitutions
Y23: W 2.7; I 3.9; S 4.36; L 3.75; D 4.53; F 3.43; A 4.1; N 4.74; M 3.46; C 4.13; T 4.01; P 4.15; G 4.14; K 3.98; H 3.88; Q 4.25; E 4.71; R 4.51; V 3.76
P24: Q 3.35; M 3.22; R 4.01; C 3.14; F 2.62; E 3.94; V 3.06; L 3.15; S 3.47; W 2.45; G 3.72; N 3.94; I 3.19; K 3.93; H 3.33; A 3.73; D 4.29; T 3.5; Y 2.68
Q22: M 2.87; D 4.15; I 2.6; T 3.27; W 2.1; C 3.19; H 3.56; K 3.87; Y 3.34; V 3.5; R 3.05; S 3.4; N 3.54; G 3.82; L 3.17; F 2.44; P 3.3; E 4.31
